Experimental data as given in patent US20180022794A1 (INSERM INSTITUT NATIONAL DE LA SANTE ET DE LA RECHERCHE …, published 2018).
One block for each binder: values may come before it.

Tests used:
Test in all cases: binding kinetics, method not stated (Table 1)
RhoA Q63L = molecular target: T1, RhoA Q63L (UniProt P61586 1-190, limits assumed)
T1 construct: also called RhoA Q63L (2SHA); constitutively active RhoA mutant

RhoB Q63L = molecular target: T2, RhoB Q63L (UniProt P62745 1-193, limits assumed)
T2 construct: also called RhoB Q63L (2SHA); constitutively active RhoB mutant
T2 sequence (P62745 1-193 Q63L limits assumed): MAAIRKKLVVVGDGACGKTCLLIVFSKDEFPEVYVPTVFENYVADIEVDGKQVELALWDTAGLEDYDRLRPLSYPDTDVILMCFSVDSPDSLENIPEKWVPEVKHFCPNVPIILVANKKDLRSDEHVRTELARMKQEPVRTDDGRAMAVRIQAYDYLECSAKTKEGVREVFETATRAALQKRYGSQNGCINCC

RhoC Q63L = molecular target: T3, RhoC Q63L (UniProt P08134 1-190, limits assumed)
T3 construct: also called RhoC Q63L (2SHA); constitutively active RhoC mutant
T3 sequence (P08134 1-190 Q63L limits assumed): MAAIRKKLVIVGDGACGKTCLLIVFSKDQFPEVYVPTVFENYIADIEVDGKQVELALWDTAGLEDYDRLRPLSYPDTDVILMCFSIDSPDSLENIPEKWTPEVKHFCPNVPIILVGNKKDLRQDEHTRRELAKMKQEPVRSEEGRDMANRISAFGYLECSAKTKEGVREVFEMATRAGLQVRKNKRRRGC

Rac Q61L = Rac Q61L (UniProt P63000 1-189)

T1 sequence (P61586 1-190 Q63L limits assumed): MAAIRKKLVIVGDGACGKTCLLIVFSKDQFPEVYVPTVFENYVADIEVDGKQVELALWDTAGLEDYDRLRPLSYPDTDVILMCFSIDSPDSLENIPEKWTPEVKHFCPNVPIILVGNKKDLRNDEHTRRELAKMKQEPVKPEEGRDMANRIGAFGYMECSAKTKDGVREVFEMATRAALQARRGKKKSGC

Kd (RhoA Q63L): 0.84 nM
koff (RhoA Q63L): 0.000686 s⁻¹
kon (RhoA Q63L): 814000 M⁻¹ s⁻¹
Kd (RhoB Q63L): 5.21 nM
koff (RhoB Q63L): 0.0024 s⁻¹
kon (RhoB Q63L): 462000 M⁻¹ s⁻¹
Kd (RhoC Q63L): 0.524 nM
koff (RhoC Q63L): 0.000901 s⁻¹
kon (RhoC Q63L): 1.72e+06 M⁻¹ s⁻¹
B1: 5SNP48 hs2dAb (VHH)
VHH: VQLQASGGGFVQPGGSLRLSCAASGTSWFTEVMGWFRQAPGKEREFVSAISGLHDVGTYYADSVKGRFTISRDNSKNTVYLQMNSLRAEDTATYYCAALDKWYTKAMDARKDYWGQGTQVTVSS

Kd (RhoA Q63L): 0.6 nM
koff (RhoA Q63L): 0.000522 s⁻¹
kon (RhoA Q63L): 870000 M⁻¹ s⁻¹
Kd (RhoB Q63L): 2.36 nM
koff (RhoB Q63L): 0.000599 s⁻¹
kon (RhoB Q63L): 253000 M⁻¹ s⁻¹
Kd (RhoC Q63L): 0.608 nM
koff (RhoC Q63L): 0.001 s⁻¹
kon (RhoC Q63L): 1.71e+06 M⁻¹ s⁻¹
B2: 5SNP65 hs2dAb (VHH)
VHH: VQLQASGGGFVQPGGSLRLSCAASGATYEGEAMGWFRQAPGKEREFVSAISSYPSVISYYADSVKGRFTISRDNSKNTVYLQMNSLRAEDTATYYCAYWVNHEGTIREIYWGQGTQVTVSS

Kd (RhoA Q63L): 1.21 nM
koff (RhoA Q63L): 0.0013 s⁻¹
kon (RhoA Q63L): 1.1e+06 M⁻¹ s⁻¹
Kd (RhoB Q63L): 4.68 nM
koff (RhoB Q63L): 0.0033 s⁻¹
kon (RhoB Q63L): 722000 M⁻¹ s⁻¹
Kd (RhoC Q63L): 5.3 nM
koff (RhoC Q63L): 0.0046 s⁻¹
kon (RhoC Q63L): 875000 M⁻¹ s⁻¹
B3: 4SNP61 hs2dAb (VHH)
VHH: VQLQASGGGFVQPGGSLRLSCAASGFTSTSTVMGWFRQAPGKEREFVSAISSAHTMDTYYADSVKGRFTISRDNSKNTVYLQMNSLRAEDTATYYCAPAPMLGQMITQPALPYWGQGTQVTVSS

Kd (RhoA Q63L): 1.31 nM
koff (RhoA Q63L): 0.0008 s⁻¹
kon (RhoA Q63L): 1.05e+06 M⁻¹ s⁻¹
Kd (RhoC Q63L): 2.32 nM
koff (RhoC Q63L): 0.000625 s⁻¹
kon (RhoC Q63L): 1.45e+06 M⁻¹ s⁻¹
B4: B6 hs2dAb (VHH)
VHH: VQLQASGGGFVQPGGSLRLSCAASGYGSTIETMGWFRQAPGKEREFVSAISRAPGPSQYYADSVKGRFTISRDNSKNTVYLQMNSLRAEDTATYYCAPINNRTMQDSMFLWNYWGQGTQVTVSS
notes: also called hs2dAb B6

Kd (RhoB Q63L): 1.57 nM
koff (RhoB Q63L): 0.000359 s⁻¹
kon (RhoB Q63L): 224000 M⁻¹ s⁻¹
Kd (Rac Q61L): 0.33 nM
koff (Rac Q61L): 0.000255 s⁻¹
kon (Rac Q61L): 753000 M⁻¹ s⁻¹
B5: H12 hs2dAb (VHH)
VHH: VQLQASGGGFVQPGGSLRLSCAASGDGSRIYAMGWFRQAPGKEREFVSAISWEQDWEHYYADSVKGRFTISRDNSKNTVYLQMNSLRAEDTATYYCAAFMTPHRNLTSMYWGQGTQVTVSS
notes: Humanized synthetic single domain antibody; Soluble form was used in ELISA and immunofluorescence and detected through a myc tag; also called clone H12; H12 antibody
